Data reported in patent US20220204611A1 (Amgen, published 2022).

T1: human TREM2 (human, UniProt Q9NZC2 19-174, limits assumed)
T1 sequence: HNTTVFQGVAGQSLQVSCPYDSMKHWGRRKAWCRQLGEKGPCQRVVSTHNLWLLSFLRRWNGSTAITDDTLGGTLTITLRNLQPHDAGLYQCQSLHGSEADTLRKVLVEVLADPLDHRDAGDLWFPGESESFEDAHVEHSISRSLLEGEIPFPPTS


How the values were obtained:
[1] = target: T1, human TREM2; test: yeast-displayed Fab FACS, 1st screen 110 nM
[2] = target: T1, human TREM2; test: yeast-displayed Fab FACS, 2nd screen 100 nM

Binder | binding signal fold over 6E7 parental [1] [fold] | binding signal fold over 6E7 parental [2] [fold]
V57 (Fab, V domains shown) VH: EVQLVQSGAEVKKPGESLKISCKGSGYSFTSYWIAWVRQMPGKGLEWMGIIYPGDSDTRYSPSFQGQVTISADKSISTAYLQWSSLKASDTAMYFCARQRTFYYDSSDYFDYWGQGTLVTVSS VL: DIQMTQSPSSVSASVGDRVTITCAASQGISSWLAWYQQKPGKAPKLLIYAASSLQNGVPSRFSGSGSGTDFTLTISSLQPEDFATYFCQQADSFPRTFGQGTKLEIK | 0.84 | 0.85
V71 (Fab, V domains shown) VH: EVQLVQSGAEVKKPGESLKISCKGSGYSFTSYWIAWVRQMPGKGLEWMGIIYPGDSDTRYSPSFQGQVTISADKSISTAYLQWSSLKASDTAMYFCARQRTFYYDSSDYFDYWGQGTLVTVSS VL: DIQMTQSPSSVSASVGDRVTITCRASQGISSWLAWYQQKPGKAPKLLIYAASSLQNGVPSRFSGSGSGTDFTLTISSLQPEDFATYFCQQADSEPRTFGQGTKLEIK | 0.37 | 0.48
V59 (Fab, V domains shown) VH: EVQLVQSGAEVKKPGESLKISCKGSGYSFTSYWIAWVRQMPGKGLEWMGIIYPGDSDTRYSPSFQGQVTISADKSISTAYLQWSSLKASDTAMYFCARQRTFYYDSSDYFDYWGQGTLVTVSS VL: DIQMTQSPSSVSASVGDRVTITCRASQGISSWLAWYQQKPGKAPKLLIYAASSLQNGVPSRFSGSGSGTDFTLTISSLQPEDFATYFCMQADSFPRTFGQGTKLEIK | 0.19 | 0.6
V80 (Fab, V domains shown) VH: EVQLVQSGAEVKKPGESLKISCKGSGYSFTSYWIAWVRQMPGKGLEWMGIIYPGDSDTRYSPSFQGQVTISADKSISTAYLQWSSLKASDTAMYFCARQRNFYYDSSDYFDYWGQGTLVTVSS VL: DIQMTQSPSSVSASVGDRVTITCRASQGISSWLAWYQQKPGKAPKLLIYAASSLQNGVPSRFSGSGSGTDFTLTISSLQPEDFATYFCQQADSFPRTFGQGTKLEIK | 0.59 | 0.5
V81 (Fab, V domains shown) VH: EVQLVQSGAEVKKPGESLKISCKGSGYSFTSYWIAWVRQMPGKGLEWMGIIYPGDSDTRYSPSFQGQVTISADKSISTAYLQWSSLKASDTAMYFCARQRTFYYDSSDYFDYWGQGTLVTVSS VL: DIQMTQSPSSVSASVGDRVTITCRASQGISSLLAWYQQKPGKAPKLLIYAASSLQNGVPSRFSGSGSGTDFTLTISSLQPEDFATYFCQQADSFPRTFGQGTKLEIK | 0.17 | 0.23
V66 (Fab, V domains shown) VH: EVQLVQSGAEVKKPGESLKISCKGSGTSFTSYWIAWVRQMPGKGLEWMGIIYPGDSDTRYSPSFQGQVTISADKSISTAYLQWSSLKASDTAMYFCARQRTFYYDSSDYFDYWGQGTLVTVSS VL: DIQMTQSPSSVSASVGDRVTITCRASQGISSWLAWYQQKPGKAPKLLIYAASSLQNGVPSRFSGSGSGTDFTLTISSLQPEDFATYFCQQADSFPRTFGQGTKLEIK | 0.25 | 0.74
V70 (Fab, V domains shown) VH: EVQLVQSGAEVKKPGESLKISCKGSGYSFTSYWIAWVRQMPGKGLEWMGIIYPGDSDTRYSPSFQGQVTISADKSISTAYLQWSSLKASDTAMYFCARQRTFYYDSSDYFDYWGQGTLVTVSS VL: DIQMTQSPSSVSASVGDRVTITCRASQGISSWLAWYQQKPGKAPKLLIYAAGSLQNGVPSRFSGSGSGTDFTLTISSLQPEDFATYFCQQADSFPRTFGQGTKLEIK | 0.79 | 0.84
V58 (Fab, V domains shown) VH: EVQLVQSGAEVKKPGESLKISCKGSGYSFTSYWIAWVRQMPGKGLEWMGIIYPGDSDTRYSPSFQGQVTISADKSISTAYLQWSSLKASDTAMYFCARQRTFYYDSSDYFDYWGQGTLVTVSS VL: DIQMTQSPSSVSASVGDRVTITCRASQGISSWLAWYQQKPGKAPKLLIYKASSLQNGVPSRFSGSGSGTDFTLTISSLQPEDFATYFCQQADSFPRTFGQGTKLEIK | 0.28 | 0.68
V91 (Fab, V domains shown) VH: EVQLVQSGAEVKKPGESLKISCKGSGYSFTSYWIAWVRQMPGKGLEWMGIIYPDDSDTRYSPSFQGQVTISADKSISTAYLQWSSLKASDTAMYFCARQRTFYYDSSDYFDYWGQGTLVTVSS VL: DIQMTQSPSSVSASVGDRVTITCRASQGISSWLAWYQQKPGKAPKLLIYAASSLQNGVPSRFSGSGSGTDFTLTISSLQPEDFATYFCQQADSFPRTFGQGTKLEIK | 0.25 | 0.61
V90 (Fab, V domains shown) VH: EVQLVQSGAEVKKPGESLKISCKGSGYSFTSEWIAWVRQMPGKGLEWMGIIYPGDSDTRYSPSFQGQVTISADKSISTAYLQWSSLKASDTAMYFCARQRTFYYDSSDYFDYWGQGTLVTVSS VL: DIQMTQSPSSVSASVGDRVTITCRASQGISRWLAWYQQKPGKAPKLLIYAASSLQNGVPSRFSGSGSGTDFTLTISSLQPEDFATYFCQQADSFPRTFGQGTKLEIK | 0.33 | 0.36
V68 (Fab, V domains shown) VH: EVQLVQSGAEVKKPGESLKISCKGSGYSFTSYWIAWVRQMPGKGLEWMGIIYPGDSDTRYSPSFQGQVTISADKSISTAYLQWSSLKASDTAMYFCARQRTFRYDSSDYFDYWGQGTLVTVSS VL: DIQMTQSPSSVSASVGDRVTITCRASQGISSWLAWYQQKPGKAPKLLIYAASSLQNGVPSRFSGSGSGTDFTLTISSLQPEDFATYFCQQADSFPRTFGQGTKLEIK | 0.44 | 0.43
V67 (Fab, V domains shown) VH: EVQLVQSGAEVKKPGESLKISCKGSGYSFTSYWIAWVRQMPGKGLEWMGMIYPGDSDTRYSPSFQGQVTISADKSISTAYLQWSSLKASDTAMYFCARQRTFYYDSSDYFDYWGQGTLVTVSS VL: DIQMTQSPSSVSASVGDRVTITCRASQGISSWLAWYQQKPGKAPKLLIYAASSLQNGVPSRFSGSGSGTDFTLTISSLQPEDFATYFCQQADSFPRTFGQGTKLEIK | 0.8 | 0.84
V83 (Fab, V domains shown) VH: EVQLVQSGAEVKKPGESLKISCKGSGYSFTSYWIAWVRQMPGKGLEWMGIIYPGDSDTRYSPSFQGQVTISADKSISTAYLQWSSLKASDTAMYFCARQRTFYYDSSDYFDYWGQGTLVTVSS VL: DIQMTQSPSSVSASVGDRVTITCRASQGISSWLAWYQQKPGKAPKLLIYAASSLQNGVPSRFSGSGSGTDFTLTISSLQPEDFATYFCQQAVSFPRTFGQGTKLEIK | 0.2 | 0.29

Other lines, results leading:

binding signal fold over 6E7 parental [1] [fold] | binding signal fold over 6E7 parental [2] [fold] | Binder
0.86 | 1.11 | V78 (Fab, V domains shown) VH: EVQLVQSGAEVKKPGESLKISCKGSGYRFTSYWIAWVRQMPGKGLEWMGIIYPGDSDTRYSPSFQGQVTISADKSISTAYLQWSSLKASDTAMYFCARQRTFYYDSSDYFDYWGQGTLVTVSS VL: DIQMTQSPSSVSASVGDRVTITCRASQGISSWLAWYQQKPGKAPKLLIYAASSLQNGVPSRFSGSGSGTDFTLTISSLQPEDFATYFCQQADSFPRTFGQGTKLEIK
0.35 | 1.05 | V93 (Fab, V domains shown) VH: EVQLVQSGAEVKKPGESLKISCKGSGYSFTSYWIAWVRQMPGKGLEWMGIIYPGDSDTRYSPSFQGQVTISADKSISTAYLQWSSLKASDTAMYFCARQRTFYYDSSDYFDYWGQGTLVTVSS VL: DIQMTQSPSSVSASVGDRVTITCRASQGISGWLAWYQQKPGKAPKLLIYAASSLQNGVPSRFSGSGSGTDFTLTISSLQPEDFATYFCQQADSFPRTFGQGTKLEIK
0.22 | 0.65 | V92 (Fab, V domains shown) VH: EVQLVQSGAEVKKPGESLKISCKGSGYSFTSYWIAWVRQMPGKGLEWMGIIYPGDSDTRYSPSFQGQVTISADKSISTAYLQWSSLKASDTAMYFCARQRTFHYDSSDYFDYWGQGTLVTVSS VL: DIQMTQSPSSVSASVGDRVTITCRASQGISSWLAWYQQKPGKAPKLLIYAASSLQNGVPSRFSGSGSGTDFTLTISSLQPEDFATYFCQQADSFPRTFGQGTKLEIK
0.41 | 0.4 | V69 (Fab, V domains shown) VH: EVQLVQSGAEVKKPGESLKISCKGSGYSFTSYWIAWVRQMPGKGLEWMGIIYPGDSDTRYSPSFQGQVTISADKSISTAYLQWSSLKASDTAMYFCARQRTFYYDSSDYFDYWGQGTLVTVSS VL: DIQMTQSPSSVSASVGDRVTITCRASQGISSYLAWYQQKPGKAPKLLIYAASSLQNGVPSRFSGSGSGTDFTLTISSLQPEDFATYFCQQADSFPRTFGQGTKLEIK
0.7 | 0.52 | V79 (Fab, V domains shown) VH: EVQLVQSGAEVKKPGESLKISCKGSGYSFTSYWIAWVRQMPGKGLEWMGIIYPGDSDTNYSPSFQGQVTISADKSISTAYLQWSSLKASDTAMYFCARQRTFYYDSSDYFDYWGQGTLVTVSS VL: DIQMTQSPSSVSASVGDRVTITCRASQGISSWLAWYQQKPGKAPKLLIYAASSLQNGVPSRFSGSGSGTDFTLTISSLQPEDFATYFCQQADSFPRTFGQGTKLEIK
0.3 | 0.79 | V82 (Fab, V domains shown) VH: EVQLVQSGAEVKKPGESLKISCKGSGYSFTSYWIAWVRQMPGKGLEWMGIIYPGDSDTRYSPSFQGQVTISADKSISTAYLQWSSLKASDTAMYFCARQRTFYYDSSDYFDYWGQGTLVTVSS VL: DIQMTQSPSSVSASVGDRVTITCRASQGISSWLAWYQQKPGKAPKLLIYAGSSLQNGVPSRFSGSGSGTDFTLTISSLQPEDFATYFCQQADSFPRTFGQGTKLEIK
